Source: patent US20250074996A1 (Innovent, published 2025)

Assays:
[1] = molecular target: T1, Cyno BCMA-Fc (monkey (cyno), UniProt A0A2K5UD97 1-53); experiment: BLI (Octet Red96e), SA or AHC sensors, 1:1 fit
T1 construct: also called monkey BCMA antigen (ACRO Biosystems); not shown: Fc tag of the bought antigen
Procedure: (§1) Sensors (Fortebio, Cat #18-5019) coupled to streptavidin protein (SA) or anti-human-Fc (AHC) were pre-wetted by immersion in 200 μL of SD buffer (1×PBS, 0.1% BSA, 0.05% tween-20). Exemplary antibodies and biotin-labeled or Fc-tagged BCMA and CD3D&E heterodimer antigens were diluted with SD buffer, respectively. 200 μL of SD buffer and diluted samples (100 nM) were taken and added to a 96-well black plate (Greiner, Cat #655209), respectively. The sensors and the samples were placed in Octet (Fortebio, Red96e). Data Acquisition 10.0 was executed and “New Kinetic Experiment” was selected. The sensors were arranged according to the positions of the samples, and the operation procedures and times were set as: Baseline 60 s, Loading 250 s, Baseline 100 s, Association 600 s and Dissociation 600 s. The experiment was conducted at a rotation speed of 1000 rpm and 30° C.
(§2) The results were analyzed in “Data Analysis 10.0” software, with the buffer reference channel being subtracted. 1:1 binding was selected to fit the data, and kₒₙ, koff, and KD values for the exemplary antibodies were calculated.
(§3) In the experiments performed according to the above-mentioned assay, the exemplary antibodies were detected using a human BCMA antigen (ACRO Biosystems) and a monkey BCMA antigen (ACRO Biosystems). The detection results of the affinities to human BCMA are shown in Table 6; and the detection results of the affinities to monkey BCMA are shown in Table 7.

[2] = molecular target: T2, Human BCMA-Bio (human, UniProt Q02223 1-54, biotin-labeled); experiment: BLI (Octet Red96e), SA or AHC sensors, 1:1 fit
T2 construct: Bought antigen; also called human BCMA antigen (ACRO Biosystems)
T2 sequence (looked up): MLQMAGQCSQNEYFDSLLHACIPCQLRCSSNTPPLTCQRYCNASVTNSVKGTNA
Procedure: as §1, §2, §3

[3] = molecular target: T3, human GPRC5D (human, UniProt Q9NZD1 1-345); experiment: flow cytometry on huGPRC5D GS-CHO cells
T3 construct: whole, on cells; also called huGPRC5D; G protein-coupled receptor family C group 5 member D
Procedure: The affinity of the anti-GPRC5D antibody was detected by flow cytometry. Antibodies at various concentrations were co-incubated with cells expressing human GPRC5D, including GS-CHO cells overexpressing human GPRC5D (huGPRC5D GS-CHO), multiple myeloma cells MM1.R, H929 and AMO-1, for 30 min. A fluorescently-labeled secondary antibody (APC-mouse anti-human IgG Fc antibody, Biolegend, Cat #409306) was then added, the cell fluorescence intensity was detected using a Live/Dead yellow dead cell stain (Thermo Fisher, Cat #L34967) by flow cytometry, a curve was fitted using GraphPad Prism 8.0, and the EC50 value was calculated to show the binding affinity of the antibody to human GPRC5D.
In the exemplary trispecific antibodies, the binding affinities of the antigen-binding sites from the humanized antibodies hz5E12.1.P1 and hz11B7.5 to GPRC5D were detected.

[4] = molecular target: T4, CD3E on the surface of Jurkat-NFAT-Luc cells (UniProt P07766 23-207); experiment: cell-based or functional assay
[5] = molecular target: T4, CD3E on the surface of Jurkat-NFAT-Luc …; experiment: cell-based or functional assay; remark: listed apart in the source
[6] = molecular target: T5, Cyno CD3D&E-Bio (monkey (cyno), UniProt Q95LI5 22-117; Q95LI8 22-105, biotin-labeled (site not stated)); experiment: BLI (Octet Red96e), SA or AHC sensors, 1:1 fit
T5 construct: Bought heterodimer antigen; also called monkey CD3D&E heterodimer antigen (ACRO Biosystems); monkey CD3E
Procedure: as §1, §2
(§4) In experiments performed according to the above-mentioned assay, the affinities of the exemplary antibodies were detected using a human CD3D&E heterodimer antigen (ACRO Biosystems) and a monkey CD3D&E heterodimer antigen (ACRO Biosystems). The binding affinities of GPRC5D×CD3 bispecific antibodies hz5E12.1-P1/SP34.24 and hz5E12.1-P1/SP34.87 to human/monkey CD3D&E were also detected.

[7] = molecular target: T6, Human CD3D&E-Bio (human, UniProt P07766 23-126; P04234 22-105, biotin-labeled (site not stated)); experiment: BLI (Octet Red96e), SA or AHC sensors, 1:1 fit
T6 construct: Bought heterodimer antigen; also called human CD3D&E heterodimer antigen (ACRO Biosystems); human CD3E
Procedure: as §1, §2, §4

T6 sequence (P07766 23-126 limits assumed, chain 1 of 2): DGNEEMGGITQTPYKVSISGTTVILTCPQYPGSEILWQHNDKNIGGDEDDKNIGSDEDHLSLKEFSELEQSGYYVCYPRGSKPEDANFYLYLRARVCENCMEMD
T6 sequence (P04234 22-105 limits assumed, chain 2 of 2): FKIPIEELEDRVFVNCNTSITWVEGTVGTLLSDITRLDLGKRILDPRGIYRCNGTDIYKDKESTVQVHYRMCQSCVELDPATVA
T1 sequence (A0A2K5UD97 entry or part of it): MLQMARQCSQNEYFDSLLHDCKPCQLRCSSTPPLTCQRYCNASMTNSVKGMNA
T5 sequence (Q95LI5 22-117 limits assumed, chain 1 of 2): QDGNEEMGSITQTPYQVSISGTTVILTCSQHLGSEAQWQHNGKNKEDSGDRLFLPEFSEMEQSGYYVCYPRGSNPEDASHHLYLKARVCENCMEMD
T5 sequence (Q95LI8 22-105 limits assumed, chain 2 of 2): as the sequence (P04234 22-105 limits assumed, chain 2 of 2) above, with I5V, N15K, I20V, S32T, D33N, I34N, T64A, S74N, V83L counted along it
T4 sequence (P07766 23-207): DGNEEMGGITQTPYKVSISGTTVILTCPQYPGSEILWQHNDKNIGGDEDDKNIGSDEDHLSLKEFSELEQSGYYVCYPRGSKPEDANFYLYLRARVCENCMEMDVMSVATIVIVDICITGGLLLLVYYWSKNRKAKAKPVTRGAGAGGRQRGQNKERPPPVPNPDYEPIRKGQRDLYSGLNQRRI
T3 sequence (Q9NZD1 whole entry): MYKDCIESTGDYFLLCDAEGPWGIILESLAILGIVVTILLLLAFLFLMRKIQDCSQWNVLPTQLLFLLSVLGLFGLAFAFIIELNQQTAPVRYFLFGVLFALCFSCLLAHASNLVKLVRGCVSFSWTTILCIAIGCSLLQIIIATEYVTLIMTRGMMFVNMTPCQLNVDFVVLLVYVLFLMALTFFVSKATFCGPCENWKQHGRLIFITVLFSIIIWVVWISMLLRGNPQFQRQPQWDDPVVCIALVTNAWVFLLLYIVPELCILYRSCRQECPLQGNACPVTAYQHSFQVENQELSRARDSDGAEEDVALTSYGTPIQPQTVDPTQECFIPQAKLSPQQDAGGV

B1: TS-F2-4 (hz5E12.1.P1/SP34.24/38456) (antibody, human IgG1, kappa, lambda, L234A L235A)
heavy 1: not shown
light 1: DIVMTQSPDSLAVSLGERATINCRASESVDSYGITFMNWYQQKPGQPPKLLIYAASNQGSGVPDRFSGSGSGTDFTLTISSLQAEDVAVYYCQQSKEVPWTFGQGTKLEIKRTVAAPSVFIFPPSDEQLKSGTASVVCLLNNFYPREAKVQWKVDNALQSGNSQESVTEQDSKDSTYSLSSTLTLSKADYEKHKVYACEVTHQGLSSPVTKSFNRGEC
heavy 2: not shown
light 2: QAVVTQEPSLTVSPGGTVTLTCRSSTGAVTTSNYANWVQQKPGQAPRGLIGGTNKRAPGVPARFSGSLLGDKAALTLLGAQPEDEAEYYCALWYSNLWVFGQGTKLTVLGQPKAAPSVTLFPPSSEELQANKATLVCLISDFYPGAVTVAWKADSSPVKAGVETTTPSKQSNNKYAASSYLSLTPEQWKSHRSYSCQVTHEGSTVEKTVAPTECS
B1 showed a Kd [1] of 0.204 nM, a koff [1] of 0.0002 s⁻¹ and a kon [1] of 980000 M⁻¹ s⁻¹. The Kd [2] was 2.27 nM, the koff [2] was 0.000297 s⁻¹ and the kon [2] was 131000 M⁻¹ s⁻¹. The EC50 [3] was 40 nM, the “EC50 of Jurkat-NFAT-Luc luciferase activation; tumor cells ARD” value [4] was 0.00238 nM and the “EC50 of Jurkat-NFAT-Luc luciferase activation; tumor cells MM.1S” value [4] was 0.00179 nM. For the same binder, the “EC50 of Jurkat-NFAT-Luc luciferase activation; tumor cells 8226” value [5] was 0.00788 nM, the “EC50 of Jurkat-NFAT-Luc luciferase activation; tumor cells H929” value [5] was 0.00738 nM and the “EC50 of Jurkat-NFAT-Luc luciferase activation; tumor cells L363” value [5] was 0.00629 nM. The “EC50 of Jurkat-NFAT-Luc luciferase activation; tumor cells U266” value [5] was 0.0503 nM, the Kd [6] was 22.7 nM and the koff [6] was 0.00301 s⁻¹. For the same binder, the kon [6] was 132000 M⁻¹ s⁻¹, the Kd [7] was 22.1 nM and the koff [7] was 0.00326 s⁻¹. It also gave a kon [7] of 147000 M⁻¹ s⁻¹.

B2: TS-F2-5 (hz5E12.1.P1/SP34.87/38456) (antibody, human IgG1, kappa, lambda, L234A L235A)
heavy 1: not shown
light 1: DIVMTQSPDSLAVSLGERATINCRASESVDSYGITFMNWYQQKPGQPPKLLIYAASNQGSGVPDRFSGSGSGTDFTLTISSLQAEDVAVYYCQQSKEVPWTFGQGTKLEIKRTVAAPSVFIFPPSDEQLKSGTASVVCLLNNFYPREAKVQWKVDNALQSGNSQESVTEQDSKDSTYSLSSTLTLSKADYEKHKVYACEVTHQGLSSPVTKSFNRGEC
heavy 2: not shown
light 2: QAVVTQEPSLTVSPGGTVTLTCRSSTGAVTTSNYANWVQQKPGQAPRGLIGGTNKRAPGVPARFSGSLLGDKAALTLLGAQPEDEAEYYCALWYSNLWVFGQGTKLTVLGQPKAAPSVTLFPPSSEELQANKATLVCLISDFYPGAVTVAWKADSSPVKAGVETTTPSKQSNNKYAASSYLSLTPEQWKSHRSYSCQVTHEGSTVEKTVAPTECS
Work on B2 yielded a Kd [1] of 0.21 nM, a koff [1] of 0.0002 s⁻¹ and a kon [1] of 950000 M⁻¹ s⁻¹. The Kd [2] was 2.1 nM, the koff [2] was 0.000279 s⁻¹ and the kon [2] was 133000 M⁻¹ s⁻¹. The EC50 [3] was 45 nM, the “EC50 of Jurkat-NFAT-Luc luciferase activation; tumor cells ARD” value [4] was 0.00696 nM and the “EC50 of Jurkat-NFAT-Luc luciferase activation; tumor cells MM.1S” value [4] was 0.00734 nM. For the same binder, the “EC50 of Jurkat-NFAT-Luc luciferase activation; tumor cells 8226” value [5] was 0.0211 nM, the “EC50 of Jurkat-NFAT-Luc luciferase activation; tumor cells H929” value [5] was 0.0178 nM and the “EC50 of Jurkat-NFAT-Luc luciferase activation; tumor cells L363” value [5] was 0.0213 nM. For the same binder, the “EC50 of Jurkat-NFAT-Luc luciferase activation; tumor cells U266” value [5] was 0.858 nM, the Kd [6] was 220 nM and the koff [6] was 0.0173 s⁻¹. The kon [6] was 78600 M⁻¹ s⁻¹, the Kd [7] was 243 nM and the koff [7] was 0.0188 s⁻¹. The kon [7] was 77500 M⁻¹ s⁻¹.
